biological target: α2-antiplasmin (UniProt P08697)
Sequence (P08697 40-491): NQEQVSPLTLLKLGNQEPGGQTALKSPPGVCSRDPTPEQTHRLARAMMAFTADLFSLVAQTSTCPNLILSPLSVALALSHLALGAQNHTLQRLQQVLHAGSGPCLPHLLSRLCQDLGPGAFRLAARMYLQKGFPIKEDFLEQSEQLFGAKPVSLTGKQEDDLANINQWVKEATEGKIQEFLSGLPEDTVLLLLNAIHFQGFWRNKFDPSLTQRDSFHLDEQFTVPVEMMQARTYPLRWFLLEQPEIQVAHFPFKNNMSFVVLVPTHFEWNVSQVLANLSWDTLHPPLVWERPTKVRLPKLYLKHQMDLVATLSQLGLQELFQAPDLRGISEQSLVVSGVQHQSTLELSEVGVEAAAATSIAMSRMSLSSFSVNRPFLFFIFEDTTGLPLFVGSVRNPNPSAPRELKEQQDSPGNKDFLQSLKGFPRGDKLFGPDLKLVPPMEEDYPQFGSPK

Chain of Mono-PEGylated Micro-plasmin variant (20 kDa PEG) E85C Catalytic Domain (SEQ ID NO. 7) (chain, as listed by the source E85C): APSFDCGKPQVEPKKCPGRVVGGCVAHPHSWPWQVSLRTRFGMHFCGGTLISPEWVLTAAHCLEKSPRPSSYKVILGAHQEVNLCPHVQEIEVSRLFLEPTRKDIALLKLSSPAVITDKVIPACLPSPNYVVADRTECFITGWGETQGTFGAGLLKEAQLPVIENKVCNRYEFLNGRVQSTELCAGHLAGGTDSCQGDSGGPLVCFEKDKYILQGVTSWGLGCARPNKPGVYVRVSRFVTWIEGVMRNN
Chain of Mono-PEGylated Micro-plasmin variant (20 kDa PEG) P86C Catalytic Domain (SEQ ID NO. 8) (chain, as listed by the source P86C): as the sequence (chain, as listed by the source E85C) above, with C85E, P86C counted along it
Chain of Mono-PEGylated Micro-plasmin variant (20 kDa PEG) V88C Catalytic Domain (SEQ ID NO. 10) (chain, as listed by the source V88C): as the sequence (chain, as listed by the source E85C) above, with C85E, V88C counted along it
Chain of Mono-PEGylated Micro-plasmin variant (40 kDa PEG) E85C Catalytic Domain (SEQ ID NO. 7) (chain, as listed by the source E85C): as the sequence (chain, as listed by the source E85C) above
Chain of Mono-PEGylated Micro-plasmin variant (40 kDa PEG) P86C Catalytic Domain (SEQ ID NO. 8) (chain, as listed by the source P86C): as the sequence (chain, as listed by the source E85C) above, with C85E, P86C counted along it
Chain of Bi-PEGylated Micro-plasmin variant (20 kDa-20 kDa PEG) E85C-H87C Catalytic Domain (SEQ ID NO. 11) (chain, as listed by the source E85C H87C): as the sequence (chain, as listed by the source E85C) above, with H87C counted along it
Chain of Mono-PEGylated Micro-plasmin variant (40 kDa PEG) V88C Catalytic Domain (SEQ ID NO. 10) (chain, as listed by the source V88C): as the sequence (chain, as listed by the source E85C) above, with C85E, V88C counted along it

Row | Substance | In vitro Half-life (of inactivation by α2-antiplasmin) [min]
1 | Mono-PEGylated Micro-plasmin variant (20 kDa PEG) P86C Catalytic Domain (SEQ ID NO. 8) | 6 to 7
2 | Bi-PEGylated Micro-plasmin variant (20 kDa-20 kDa PEG) E85C-H87C Catalytic Domain (SEQ ID NO. 11) | >10
3 | Mono-PEGylated Micro-plasmin variant (40 kDa PEG) E85C Catalytic Domain (SEQ ID NO. 7) | >7
4 | Mono-PEGylated Micro-plasmin variant (40 kDa PEG) V88C Catalytic Domain (SEQ ID NO. 10) | >7
5 | Mono-PEGylated Micro-plasmin variant (20 kDa PEG) V88C Catalytic Domain (SEQ ID NO. 10) | 6 to 7
6 | Mono-PEGylated Micro-plasmin variant (20 kDa PEG) E85C Catalytic Domain (SEQ ID NO. 7) | 6 to 7
7 | Mono-PEGylated Micro-plasmin variant (40 kDa PEG) P86C Catalytic Domain (SEQ ID NO. 8) | >7

Source: patent publication US20220096608
